Data: paper PMC8421416, “Structure of the native pyruvate dehydrogenase complex reveals the mechanism of substrate insertion” (Nature Communications, 2021)

B1: dihydrolipoyl transacetylase (E2p) of the E. coli pyruvate dehydrogenase complex (enzyme, E. coli K12, UniProt P06959 1-630, looked up)
chain: MAIEIKVPDIGADEVEITEILVKVGDKVEAEQSLITVEGDKASMEVPSPQAGIVKEIKVSVGDKTQTGALIMIFDSADGAADAAPAQAEEKKEAAPAAAPAAAAAKDVNVPDIGSDEVEVTEILVKVGDKVEAEQSLITVEGDKASMEVPAPFAGTVKEIKVNVGDKVSTGSLIMVFEVAGEAGAAAPAAKQEAAPAAAPAPAAGVKEVNVPDIGGDEVEVTEVMVKVGDKVAAEQSLITVEGDKASMEVPAPFAGVVKELKVNVGDKVKTGSLIMIFEVEGAAPAAAPAKQEAAAPAPAAKAEAPAAAPAAKAEGKSEFAENDAYVHATPLIRRLAREFGVNLAKVKGTGRKGRILREDVQAYVKEAIKRAEAAPAATGGGIPGMLPWPKVDFSKFGEIEEVELGRIQKISGANLSRNWVMIPHVTHFDKTDITELEAFRKQQNEEAAKRKLDVKITPVVFIMKAVAAALEQMPRFNSSLSEDGQRLTLKKYINIGVAVDTPNGLVVPVFKDVNKKGIIELSRELMTISKKARDGKLTAGEMQGGCFTISSIGGLGTTHFAPIVNAPEVAILGVSKSAMEPVWNGKEFVPRLMLPISLSFDHRVIDGADGARFITIINNTLSDIRRLVM
modifications: lipoylated residues K41, K144 and K245 (mass spectrometry); dihydrolipoyllysine modelled at K245 in the structure
notes: dihydrolipoyl transacetylase (E2p), aceF gene, E. coli strain K12; native full-length protein, modelled catalytic domain starts at P384; It was modelled as the innermost one (K245), from PDB 1qjo; also called dihydrolipoyl acyltransferase; E2p core; source: endogenous, E. coli K12; copies: 24
B2: dihydrolipoyl dehydrogenase (E3) of the E. coli pyruvate dehydrogenase complex (enzyme, E. coli K12 (endogenous), UniProt P0A9P0 1-474, looked up)
chain: MSTEIKTQVVVLGAGPAGYSAAFRCADLGLETVIVERYNTLGGVCLNVGCIPSKALLHVAKVIEEAKALAEHGIVFGEPKTDIDKIRTWKEKVINQLTGGLAGMAKGRKVKVVNGLGKFTGANTLEVEGENGKTVINFDNAIIAAGSRPIQLPFIPHEDPRIWDSTDALELKEVPERLLVMGGGIIGLEMGTVYHALGSQIDVVEMFDQVIPAADKDIVKVFTKRISKKFNLMLETKVTAVEAKEDGIYVTMEGKKAPAEPQRYDAVLVAIGRVPNGKNLDAGKAGVEVDDRGFIRVDKQLRTNVPHIFAIGDIVGQPMLAHKGVHEGHVAAEVIAGKKHYFDPKVIPSIAYTEPEVAWVGLTEKEAKEKGISYETATFPWAASGRAIASDCADGMTKLIFDKESHRVIGGAIVGTNGGELLGEIGLAIEMGCDAEDIALTIHAHPTLHESVGLAAEVFEGSITDLPNPKAKKK
notes: dihydrolipoyl dehydrogenase (E3), E. coli K12, endogenous subunit of the native PDHc; source: endogenous, E. coli K12

What was measured:
[1] = target: T1, dihydrolipoyl transacetylase (E2p) core of E. coli PDHc (Escherichia coli, UniProt P06959); experiment: cryo-EM structure, […] A; format: binding; conditions: covalent: moiety attached by amide bond to K245 of the lipoyl domain of the same protein (dihydrolipoyllysine), not the free amide; bound in E2p active site channel; no CoA; reduced state modelled, ox
T1 construct: gene aceF; native full-length E2p in native PDHc; catalytic domain modelled from P384 plus one lipoyl domain (averaged, modelled as innermost, K245); octahedral 24-mer
T1 sequence (P06959 2-630): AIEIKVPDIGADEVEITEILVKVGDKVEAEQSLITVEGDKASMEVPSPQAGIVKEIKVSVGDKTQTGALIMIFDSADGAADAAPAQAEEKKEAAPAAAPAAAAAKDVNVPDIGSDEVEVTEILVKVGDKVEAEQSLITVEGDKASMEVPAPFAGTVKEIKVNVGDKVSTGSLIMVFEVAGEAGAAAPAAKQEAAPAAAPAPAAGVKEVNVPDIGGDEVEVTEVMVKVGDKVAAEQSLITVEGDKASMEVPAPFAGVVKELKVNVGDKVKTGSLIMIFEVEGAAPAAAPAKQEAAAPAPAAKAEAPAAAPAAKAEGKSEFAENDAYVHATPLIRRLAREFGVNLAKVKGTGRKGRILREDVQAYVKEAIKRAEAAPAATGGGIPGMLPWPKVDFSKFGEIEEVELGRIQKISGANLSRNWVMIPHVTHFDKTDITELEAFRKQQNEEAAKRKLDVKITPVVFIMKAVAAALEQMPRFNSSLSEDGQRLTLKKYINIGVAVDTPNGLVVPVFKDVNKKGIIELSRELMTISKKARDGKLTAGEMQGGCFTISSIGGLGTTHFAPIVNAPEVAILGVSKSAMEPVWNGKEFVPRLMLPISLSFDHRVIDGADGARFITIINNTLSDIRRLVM

[2] = target: the molecule itself; experiment: cryo-EM structure; native E2p core of PDHc isolated from E. coli K12, resting state without substrates; 20 mM Hepes pH 7.5, 150 mM NaCl; O symmetry imposed, 3.16 Å
[3] = target: T2, pyruvate dehydrogenase (E1p) of the E. coli pyruvate dehydrogenase complex (E. coli K12 (endogenous), UniProt P0AFG8 1-887); experiment: cryo-EM structure; whole native PDHc (approx. 4.5 MDa) isolated from E. coli K12; low-resolution reconstruction without symmetry; 2D classes of the outer shell after subtraction of the E2p core; conditions: both partners purified
T2 construct: pyruvate dehydrogenase E1 component (E1p), E. coli K12, endogenous subunit of the native PDHc; source: endogenous, E. coli K12
T2 sequence (P0AFG8 whole entry, one chain of several): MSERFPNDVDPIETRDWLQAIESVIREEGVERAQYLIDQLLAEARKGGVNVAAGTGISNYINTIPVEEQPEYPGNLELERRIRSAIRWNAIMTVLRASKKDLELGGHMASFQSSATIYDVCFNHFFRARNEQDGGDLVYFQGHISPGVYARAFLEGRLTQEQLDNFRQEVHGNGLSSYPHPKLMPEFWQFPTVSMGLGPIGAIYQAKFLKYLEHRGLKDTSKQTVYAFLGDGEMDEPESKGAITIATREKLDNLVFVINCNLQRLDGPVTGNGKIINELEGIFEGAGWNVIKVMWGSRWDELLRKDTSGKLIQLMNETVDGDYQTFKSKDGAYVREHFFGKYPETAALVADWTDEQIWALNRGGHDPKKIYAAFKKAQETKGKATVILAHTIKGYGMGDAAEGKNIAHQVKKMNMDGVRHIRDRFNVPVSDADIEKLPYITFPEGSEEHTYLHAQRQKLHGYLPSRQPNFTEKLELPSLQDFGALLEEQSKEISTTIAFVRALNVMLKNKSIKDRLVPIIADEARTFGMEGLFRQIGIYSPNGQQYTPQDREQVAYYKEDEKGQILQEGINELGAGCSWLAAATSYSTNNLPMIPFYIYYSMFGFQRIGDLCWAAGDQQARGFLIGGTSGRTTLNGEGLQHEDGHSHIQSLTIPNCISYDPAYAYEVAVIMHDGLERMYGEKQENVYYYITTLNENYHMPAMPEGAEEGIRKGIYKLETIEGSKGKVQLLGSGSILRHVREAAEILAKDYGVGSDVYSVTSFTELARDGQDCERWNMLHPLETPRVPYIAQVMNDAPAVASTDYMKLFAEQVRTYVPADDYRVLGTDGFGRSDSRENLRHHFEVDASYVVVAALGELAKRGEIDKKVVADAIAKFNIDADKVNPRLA

[4] = target: B1; experiment: as above; conditions: both partners purified

Molecule: NC(=O)CCCC[C@@H](S)CCS [dihydrolipoamide]
cryo-EM structure, 3.16 A [1]: we modeled the prosthetic group as dihydrolipoamide, i.e., the product of the E2p-catalyzed reaction

Molecule: B1
stoichiometry N [2]: 24
binding result [3]: binds

Molecule: B2
binding result [4]: binds
